Experimental data as given in paper PMC4598300.

Target: tag-free PTEN (human) (UniProt P60484)
Assay: SEC-SAXS

stoichiometry N: 2
Substance: tag-free PTEN, P60484 1-403 (enzyme; other documents disagree on this pair)
